From publication PMC4368505 (Nature, 2015)

T1: Drosophila Orc3 (amino acid residues 47-721) of the trimmed ORC core (Drosophila, UniProt Q7K2L1 47-721)
T1 sequence (looked up): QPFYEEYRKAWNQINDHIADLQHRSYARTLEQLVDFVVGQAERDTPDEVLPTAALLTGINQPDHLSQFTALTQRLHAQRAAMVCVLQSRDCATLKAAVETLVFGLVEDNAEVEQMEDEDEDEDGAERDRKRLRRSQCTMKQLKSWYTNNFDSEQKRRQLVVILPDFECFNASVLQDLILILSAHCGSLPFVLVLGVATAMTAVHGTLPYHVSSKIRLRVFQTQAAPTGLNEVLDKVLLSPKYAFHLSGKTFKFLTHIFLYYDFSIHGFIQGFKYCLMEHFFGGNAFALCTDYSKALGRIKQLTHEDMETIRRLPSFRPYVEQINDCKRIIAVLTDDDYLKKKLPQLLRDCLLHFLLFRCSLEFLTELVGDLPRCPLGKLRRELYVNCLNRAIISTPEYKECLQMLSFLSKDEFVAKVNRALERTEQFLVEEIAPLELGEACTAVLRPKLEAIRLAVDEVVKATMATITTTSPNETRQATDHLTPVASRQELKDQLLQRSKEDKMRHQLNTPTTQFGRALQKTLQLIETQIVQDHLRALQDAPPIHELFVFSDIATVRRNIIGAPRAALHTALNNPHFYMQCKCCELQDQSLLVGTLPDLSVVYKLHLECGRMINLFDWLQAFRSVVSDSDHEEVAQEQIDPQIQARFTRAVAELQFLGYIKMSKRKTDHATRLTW

B1: Drosophila Orc5 (amino acid residues 1-460) (natural protein, UniProt Q24169 1-460, looked up)
chain: MEAICSSLEPLFPCREAAIETLGELIGDSSETYPSAIYLFGHSGTGKTALTRAFLKECGKRQNVRTAHLNAIECYTTKIMLEILLDSLAPDQGDALKVDNMLDFVEQLRRQAATRVEDQGFLIAVDNAERLRDMDANVLPVLLRLQELTNLNLCVILLSQLPFEKFYNKTGLSEIVCLHLAQYNKAETQRILGSDFQQVRNQLLEQFAQDKKRLEICQEAVTEDFYNNYLNLFLSVFYKACRDVPELQLTARKCLSTYLEPVLDGTVDATDISRLWRHIAGPLRSALTQIYMRIEKPAEEVEDFTAIEDQSVRKLAQSLELPYYAKFLLIAAFLASHNAAKQDKRLFVKHHGKQRKRMQTVNARAKTTEKMSTTLGPKSFSIDRLLAIFYAILEEKVGLTCNLLSQISTLVHLNLLSFVSGEQNIMEGSARLQCTIGLEFVLQIGKVVGFNVRQYLCDFM
B2: Drosophila Orc1 (amino acid residues 533-924) of the trimmed ORC core (domain or fragment, UniProt O16810 533-924, looked up)
chain: SPSMQQRTDLPAKDSSKSELQLAREQLHVSVVPKSLPCREREFENIYAFLEGKIQDQCGGCMYVSGVPGTGKTATVTGVIRTLQRMAKQNELPAFEYLEINGMRLTEPRQAYVQIYKQLTGKTVSWEQAHALLEKRFTTPAPRRVTTVLLVDELDILCNRRQDVVYNLLDWPTKSAAKLVVVTIANTMDLPERLLMGKVTSRLGLTRLTFQPYSHKQLQEIVTARLGGSETFKGEAVQLVARKVAAVSGDARRALDICRRATEIADTAAVKCVTMLHVQQALAEMIASAKVQAIRNCSRMEQIFLQAIAAEVTRTGVEETTFMGVYQQVETIAAFMGVTFPPPGRALRLCSKLGAERLIISEHSRNDLFQKILLNVSADDIHYALRVEEMVN
B3: Drosophila Orc4 (amino acid residues 1-459) (natural protein, UniProt Q9W102 1-459, looked up)
chain: MPEADRELVSIRRFLKERLQRDYTTLRGYAKERSNVRLLLQRTAEMGESNSLLLLGPRGSGKTTLINSVLADLLPNKSFGENTLIVHLDGNLHTDDRVALKSITVQMQLENAADGKVFGSFAENLAFLLQCLKAGGKHSKSVIFILEEFDLFCAHHNQTLLYNLFDVSQSAQAPICVLGVTCRLDVIELLEKRVKSRFSHRQVFLFPSLRRFEDYVDLCRDLLSLPTGNSLLLAAEKIYNLQNIQSGALYFSRNHFDPGEYGFSPRLRDAWNKQICKVLATQQARSTLQALHDFDISEAYLKNFLFRLVAHLRPQSPHITAEKMAAVGSQFEGDDKIELLCGLSVLELCLIIAIKHHSQIYDRDSFNFEIIYARFSKFAKVSTTMQAVERSIVLKAFEHLRIAELIMPLTGGAGGGVGKVQKEFEMHKLALTYSQIHHCMQRYQALPTEVAQWAQSSLI

Key:
Experiment in all cases: crystal structure
[1] = target: T1, Drosophila Orc3 (amino acid residues …)
[2] = target: B3
[3] = target: B2
[4] = target: B1

Row | binding result [1] | binding result [2] | binding result [3] | binding result [4] | Binder
1 | binds | – | – | – | B1
2 | binds | binds | – | – | B2
3 | binds | – | binds | – | Drosophila Orc2 (amino acid residues 266-618) of the trimmed ORC core (domain or fragment, UniProt Q24168 266-618, looked up) QSARAKKSNEFVPESDGYFHSHASSKILTSDHTLDRLKNPRLAADRVFSLLSEIKTSAEHEGSINAIMEEYRSYFPKWMCILNEGFNILLYGLGSKHQLLQSFHREVLHKQTVLVVNGFFPSLTIKDMLDSITSDILDAGISPANPHEAVDMIEEEFALIPETHLFLIVHNLDGAMLRNVKAQAILSRLARIPNIHLLASIDHINTPLLWDQGKLCSFNFSWWDCTTMLPYTNETAFENSLLVQNSGELALSSMRSVFSSLTTNSRGIYMLIVKYQLKNKGNATYQGMPFRDLYSSCREAFLVSSDLALRAQLTEFLDHKLVKSKRSVDGSEQLTIPIDGALLQQFLEEQEKK
4 | – | – | – | binds | B3
